Assay results reported in patent US20190330367A1.

What was measured:
[1] = target: human PSMA, full-length (endogenous on LNCaP and CW22Rv1 cells, or stably overexpressed in HEK293T/17 cells) (human) (UniProt Q04609); assay: flow cytometry (summary sentence; differs from […] in Table 2)
[2] = target: Avi-PSMA, extracellular part of human PSMA comprising an N-terminal Avi-tag (human) (UniProt Q04609); assay: direct ELISA on biotinylated Avi-PSMA held on streptavidin-coated plates, HRP secondary antibody, chemiluminescence, normalised binding (%)
[3] = target: human PSMA, full-length (endogenous on LNCaP and CW22Rv1 cells, or stably overexpressed in HEK293T/17 cells) (human) (UniProt Q04609); assay: flow cytometry on live LNCaP cells, mAb 5 µg/mL, Alexa Fluor 647 secondary antibody; number printed beside the open (LNCaP) histogram
[4] = target: Avi-PSMA, extracellular part of human PSMA comprising an N-terminal Avi-tag (human) (UniProt Q04609); assay: native ELISA, biotinylated Avi-PSMA on streptavidin plate, mAb titrated
[5] = target: rhPSMA, extracellular part of human PSMA (residues 44-750) (human) (UniProt Q04609); assay: SPR (BIAcore 2000), mAb captured by anti-mouse IgG, rhPSMA as analyte, Langmuir 1:1 fit
[6] = target: human PSMA, full-length (endogenous on LNCaP and CW22Rv1 cells, or stably overexpressed in HEK293T/17 cells) (human) (UniProt Q04609); assay: flow cytometry titration on live LNCaP cells
[7] = target: human PSMA, full-length (endogenous on LNCaP and CW22Rv1 cells, or stably overexpressed in HEK293T/17 cells) (human) (UniProt Q04609); assay: flow cytometry titration on live LNCaP cells, Alexa Fluor 647 secondary antibody, normalised binding (%)

| Kd [1] | EC50 (read off the curve) [2] | median fluorescence (Alexa Fluor 647) [3] | Kd [4] | Kd [5] | Kd [6] | EC50 (read off the curve) [7] | koff [5] | kon [5] | Substance |
| --- | --- | --- | --- | --- | --- | --- | --- | --- | --- |
| 1.2 nM | 0.1 to 0.2 nM | 10700 | 0.14 nM | 1.08 nM |  |  |  |  | 5D3 mAb (antibody) |
|  | 0.9 nM | 10600 | 1.12 nM | 1.21 nM | 15.2 nM | 10 nM | 0.000123 s⁻¹ | 102000 M⁻¹ s⁻¹ | J591 mAb (antibody) |
